Values joined by “and” are separate entries in the source; they are usually repeats but may differ in a detail not shown here. Equal values may be shown once.
How the values were obtained:
[1] = target: the molecule itself; assay: negative-stain TEM with 2D classification; purified protein on carbon-coated copper grids, 0.75% uranyl formate; ~3500 particles for FliDsm and 2700 for FliDpa, 2D class averages
[2] = target: the molecule itself; assay: cryo-EM structure; purified FliDcj at 1 mg/ml vitrified on holey carbon grids; protein in 50 mM HEPES 150 mM NaCl pH 7; D5 symmetry (full map, 4.7 Å), C5 (head map, 5.0 Å)
[3] = target: T1, FliD from Pseudomonas aeruginosa, full length (P. aeruginosa), Q9K3C5; assay: negative-stain TEM with 2D classification; purified protein on carbon-coated copper grids, 0.75% uranyl formate; ~3500 particles for FliDsm and 2700 for FliDpa, 2D class averages; conditions: remark: other sources report otherwise
T1 chain: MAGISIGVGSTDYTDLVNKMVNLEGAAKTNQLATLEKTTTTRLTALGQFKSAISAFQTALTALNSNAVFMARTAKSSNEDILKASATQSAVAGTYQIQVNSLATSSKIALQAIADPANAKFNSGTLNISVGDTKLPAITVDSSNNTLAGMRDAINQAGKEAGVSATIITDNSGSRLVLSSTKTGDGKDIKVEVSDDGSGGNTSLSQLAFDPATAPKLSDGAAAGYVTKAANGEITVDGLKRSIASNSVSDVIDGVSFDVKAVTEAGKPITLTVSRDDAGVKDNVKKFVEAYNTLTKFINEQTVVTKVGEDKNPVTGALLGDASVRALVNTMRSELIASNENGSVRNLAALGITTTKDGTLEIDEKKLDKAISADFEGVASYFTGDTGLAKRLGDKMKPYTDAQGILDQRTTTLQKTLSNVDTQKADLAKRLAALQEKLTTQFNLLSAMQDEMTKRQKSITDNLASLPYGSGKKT

B1: FliD from Serratia marcescens, full length (natural protein)
chain: MATISSLGLGSGLDLNGLLDKLTKAEQQRLTPYTTKQSSYNAQLTGYGTLKGALEKFDNLSKEMAKEDFFKATTATEHDAFKITTNAKAVPGNYVVEVNKLAQAQTLTTQAKVSDQGAKLGAEGVTDRSLTITAGNPPKETKIPLSDDQTSLVELRDAINGAKAGVTASIMRVGDNDYQLAVSSSTTGENNKISLQVDNDDQLGDILNYNATRGTGTAMKQTVAPQDAELTVNGTAIKRSTNSISDALQGVTIDLKTKTKTDEPQHLVISTNTAGTTDKIKEWVDSYNSLLDTFNALSKFTPVKTGEAPNPTNGPLLGDNTLRGIQSSIKSALSAAQDNPELKGLGNLGISTNTKTGKLEIDSAKLKKAMDEKPDQVSNFFVGNGKDTGMATEIHNEIQSYIKSGGIIENSTKSINTNLDRLNSQITTVTASIQNTIDRYKQQFVQLDTMMSKMNGTSNYLAQQFK
notes: FliD (flagellar cap protein) of Serratia marcescens; gene codon-optimised for E. coli, synthesised and sub-cloned into pET28a; The head domain of this protein is PDB 5XLJ (cited); also called FliDsm; source: E. coli BL21-CodonPlus(DE3)-RIL, purified (Ni-NTA, Superdex 200 SEC)
stoichiometry N [1]: 5

B2: FliD from Campylobacter jejuni, full length (flagellum cap protein) (natural protein)
chain: MAFGSLSSLGFGSGVLTQDTIDKLKEAEQKARIDPYTKKIEENTTKQKDLTEIKTKLLSFQTAVSSLADATVFAKRKVVGSISDNPPASLTVNSGVALQSMNINVTQLAQKDVYQSKGLANDGGFVNAQLNGTADLTFFSNGKEYTVTVDKNTTYRDLADKINEASGGEIVAKIVNTGEKGTPYRLTLTSKETGEDSAISFYAGKKDSNGKYQKDINAEKIFDDLGWGLDVSASIDPDKDKKGYGIKDASLHIQTAQNAEFTLDGIKMFRSSNTVTDLGVGMTLTLNKTGEINFDVQQDFEGVTKAMQDLVDAYNDLVTNLNAATDYNSETGTKGTLQGISEVNSIRSSILADLFDSQVVDGTTEDANGNKVNTKVMLSMQDFGLSLNDAGTLSFDSSKFEQKVKEDPDSTESFFSNITKYEDINHTGEVIKTGSLSKYLNSNGGNTNGLEFKPGDFTIVFNNQTYDLSKNSDGTNFKLTGKTEEELLQNLANHINSKGIEGLKVKVESYNQNNVTGFRLNFSGDGSSDFSIKGDANILKELGLSDVNITSKPIEGKGIFSKLKATLQEMTGKDGSITKYDESLTNDIKSLNTSKDSTQAMIDTRYDTMANQWLQYESILNKLNQQLNTVTNMINAANNSNN
notes: FliD (flagellar cap protein, HAP2) of Campylobacter jejuni; gene codon-optimised for E. coli, synthesised and sub-cloned into pET28a; printed numbering runs to residue 643 (C-terminus 577-643); The D4 domain was not built in the model 6SIH; also called FliDcj; HAP2; source: E. coli BL21-CodonPlus(DE3)-RIL, purified (Ni-NTA, Superdex 200 SEC)
stoichiometry N [2]: 10 and 5

B3: FliD from Pseudomonas aeruginosa, full length, Q9K3C5 1-474 (natural protein)
chain: T1 chain
percent of particles that are pentamers [3]: 25.5% | stoichiometry N [3]: 5

Source: article PMC7316729, “The cryo-EM structure of the bacterial flagellum cap complex suggests a molecular mechanism for filament elongation” (Nature Communications, 2020)
